Assay results reported in patent US20070128623A1.

Target: GST-tagged PLD1-PX
Test: AFM force measurement; GST-Munc-18-1 on dendron-modified tip, GST-PLD1-PX on dendron-modified Si wafer

Work on GST-tagged Munc-18-1 yielded a binding force of 50 pN.
